Article PMC9547791 (Acta Neuropathologica, 2022)

Biological target: T1, STI1 TPR2A domain (residues 217-352) (mouse, UniProt Q60864 217-352)
T1 construct: STI1, mouse, TPR2A domain, residues 217-352; The tag is TEV-cleavable
Settings: both partners purified

T1 sequence (Q60864 217-352): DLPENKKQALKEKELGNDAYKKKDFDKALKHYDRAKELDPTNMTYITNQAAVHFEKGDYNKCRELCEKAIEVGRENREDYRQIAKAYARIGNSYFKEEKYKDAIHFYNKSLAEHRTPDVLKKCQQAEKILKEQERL

binding result: binds
B1: Hsp90 pentapeptide (MEEVD), C-terminus of Hsp90 (peptide)
peptide: MEEVD
notes: pentapeptide motif of the C-terminus of Hsp90; also called Hsp90 peptide
